Experimental data as given in publication PMC8111768 (Immunity, 2021).

B1: recombinant murine FcγRIV (receptor)
chain: GLQKAVVNLDPKWVRVLEEDSVTLRCQGTFSPEDNSIKWFHNESLIPHQDANYVIQSARVKDSGMYRCQTALSTISDPVQLEVHMGWLLLQTTKWLFQEGDPIHLRCHSWQNRPVRKVTYLQNGKGKKYFHENSELLIPKATHNDSGSYFCRGLIGHNNKSSASFRISLGDPGSPSMFPPWHQ
modifications: soluble ectodomain by convention (UniProt topology); tag not stated
B2: recombinant murine FcγRIIb (receptor)
chain: THDLPKAVVKLEPPWIQVLKEDTVTLTCEGTHNPGNSSTQWFHNGRSIRSQVQASYTFKATVNDSGEYRCQMEQTRLSDPVDLGVISDWLLLQTPQLVFLEGETITLRCHSWRNKLLNRISFFHNEKSVRYHHYSSNFSIPKANHSHSGDYYCKGSLGRTLHQSKPVTITVQGPKSSRSLP
modifications: soluble ectodomain by convention (UniProt topology); tag not stated
B3: recombinant murine FcγRIII (receptor)
chain: ALPKAVVKLDPPWIQVLKEDMVTLMCEGTHNPGNSSTQWFHNGRSIRSQVQASYTFKATVNDSGEYRCQMEQTRLSDPVDLGVISDWLLLQTPQRVFLEGETITLRCHSWRNKLLNRISFFHNEKSVRYHHYKSNFSIPKANHSHSGDYYCKGSLGSTQHQSKPVTITVQDPATTSSISLVWYHT
modifications: soluble ectodomain by convention (UniProt topology); tag not stated

Key:
Test in all cases: BLI
[1] = target: VIC16 REFORMab EFTEA (G236A/S267E/H268F/S324T/I332E) (mouse | human)
[2] = target: VIC16 REFORMab SDIEALGA (G236A/S239D/A330L/I332E) (mouse | human)
[3] = target: VIC16 REFORMab KWES (printed K236W/E333S) (mouse | human)
[4] = target: VIC16 REFORMab LALA (L234A/L235A) (mouse | human)

| Binder | Kd [1] [nM] | Kd [2] [nM] | Kd [3] [nM] | Kd [4] [nM] |
| --- | --- | --- | --- | --- |
| B1 | 120 | 1 | 160 | – |
| B2 | 490 | 130 | 46000 | – |
| B3 | 1100 | 10 | 20 | 820000 |
